Test results from PMC11574045, “A cofactor-induced repressive type of transcription factor condensation can be induced by synthetic peptides to suppress tumorigenesis” (The EMBO Journal, 2024).

Tested on: HEK293FT cells transfected with TF library
Test: Screening of TF condensates based on fluorescent puncta
Format: cell-based
Conditions: Figure 1B numerical data; TF library screen, one value per transcriptional factor
In short: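 HEK293FT cells were reverse-transfected with Flag- or GAL4-tagged TF plasmids (1.6 μg/ml, PEI). After 60 h, cells were cultured 12 h with or without glucose, then fixed and immunostained with anti-Flag or anti-GAL4 and Alexa 488 secondaries. Fluorescent puncta were imaged over fifty random fields per well by high-content imaging.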

B1: TOB1 (protein, UniProt P50616 1-345, looked up)
Protein Tob1: MQLEIQVALNFIISYLYNKLPRRRVNIFGEELERLLKKKYEGHWYPEKPYKGSGFRCIHIGEKVDPVIEQASKESGLDIDDVRGNLPQDLSVWIDPFEVSYQIGEKGPVKVLYVDDNNENGCELDKEIKNSFNPEAQVFMPISDPASSVSSSPSPPFGHSAAVSPTFMPRSTQPLTFTTATFAATKFGSTKMKNSGRSNKVARTSPINLGLNVNDLLKQKAISSSMHSLYGLGLGSQQQPQQQQQPAQPPPPPPPPQQQQQQKTSALSPNAKEFIFPNMQGQGSSTNGMFPGDSPLNLSPLQYSNAFDVFAAYGGLNEKSFVDGLNFSLNNMQYSNQQFQPVMAN
Z score of condensed fraction: -0.3688

B2: THAP6 (protein, UniProt Q8TBB0 1-222, looked up)
THAP domain-containing …: MVKCCSAIGCASRCLPNSKLKGLTFHVFPTDENIKRKWVLAMKRLDVNAAGIWEPKKGDVLCSRHFKKTDFDRSAPNIKLKPGVIPSIFDSPYHLQGKREKLHCRKNFTLKTVPATNYNHHLVGASSCIEEFQSQFIFEHSYSVMDSPKKLKHKLDHVIGELEDTKESLRNVLDREKRFQKSLRKTIRELKDECLISQETANRLDTFCWDCCQESIEQDYIS
Z score of condensed fraction: 2.571

B3: THAP8 (protein, UniProt Q8NA92 1-274, looked up)
THAP domain-containing …: MPKYCRAPNCSNTAGRLGADNRPVSFYKFPLKDGPRLQAWLQHMGCEHWVPSCHQHLCSEHFTPSCFQWRWGVRYLRPDAVPSIFSRGPPAKSQRRTRSTQKPVSPPPPLQKNTPLPQSPAIPVSGPVRLVVLGPTSGSPKTVATMLLTPLAPAPTPERSQPEVPAQQAQTGLGPVLGALQRRVRRLQRCQERHQAQLQALERLAQQLHGESLLARARRGLQRLTTAQTLGPEESQTFTIICGGPDIAMVLAQDPAPATVDAKPELLDTRIPSA
Z score of condensed fraction: 1.115

B4: TLE2 (protein, UniProt Q04725 1-743, looked up)
Transducin-like enhancer …: MYPQGRHPTPLQSGQPFKFSILEICDRIKEEFQFLQAQYHSLKLECEKLASEKTEMQRHYVMYYEMSYGLNIEMHKQAEIVKRLSGICAQIIPFLTQEHQQQVLQAVERAKQVTVGELNSLIGQQLQPLSHHAPPVPLTPRPAGLVGGSATGLLALSGALAAQAQLAAAVKEDRAGVEAEGSRVERAPSRSASPSPPESLVEEERPSGPGGGGKQRADEKEPSGPYESDEDKSDYNLVVDEDQPSEPPSPATTPCGKVPICIPARRDLVDSPASLASSLGSPLPRAKELILNDLPASTPASKSCDSSPPQDASTPGPSSASHLCQLAAKPAPSTDSVALRSPLTLSSPFTTSFSLGSHSTLNGDLSVPSSYVSLHLSPQVSSSVVYGRSPVMAFESHPHLRGSSVSSSLPSIPGGKPAYSFHVSADGQMQPVPFPSDALVGAGIPRHARQLHTLAHGEVVCAVTISGSTQHVYTGGKGCVKVWDVGQPGAKTPVAQLDCLNRDNYIRSCKLLPDGRSLIVGGEASTLSIWDLAAPTPRIKAELTSSAPACYALAVSPDAKVCFSCCSDGNIVVWDLQNQTMVRQFQGHTDGASCIDISDYGTRLWTGGLDNTVRCWDLREGRQLQQHDFSSQIFSLGHCPNQDWLAVGMESSNVEILHVRKPEKYQLHLHESCVLSLKFASCGRWFVSTGKDNLLNAWRTPYGASIFQSKESSSVLSCDISRNNKYIVTGSGDKKATVYEVVY
Z score of condensed fraction: 0.1994

B5: THRB (protein, UniProt P10828 1-461, looked up)
Thyroid hormone receptor beta: MTPNSMTENGLTAWDKPKHCPDREHDWKLVGMSEACLHRKSHSERRSTLKNEQSSPHLIQTTWTSSIFHLDHDDVNDQSVSSAQTFQTEEKKCKGYIPSYLDKDELCVVCGDKATGYHYRCITCEGCKGFFRRTIQKNLHPSYSCKYEGKCVIDKVTRNQCQECRFKKCIYVGMATDLVLDDSKRLAKRKLIEENREKRRREELQKSIGHKPEPTDEEWELIKTVTEAHVATNAQGSHWKQKRKFLPEDIGQAPIVNAPEGGKVDLEAFSHFTKIITPAITRVVDFAKKLPMFCELPCEDQIILLKGCCMEIMSLRAAVRYDPESETLTLNGEMAVTRGQLKNGGLGVVSDAIFDLGMSLSSFNLDDTEVALLQAVLLMSSDRPGLACVERIEKYQDSFLLAFEHYINYRKHHVTHFWPKLLMKVTDLRMIGACHASRFLHMKVECPTELFPPLFLEVFED
Z score of condensed fraction: -0.3414

B6: THRA (protein, UniProt P10827 1-490, looked up)
Thyroid hormone receptor alpha: MEQKPSKVECGSDPEENSARSPDGKRKRKNGQCSLKTSMSGYIPSYLDKDEQCVVCGDKATGYHYRCITCEGCKGFFRRTIQKNLHPTYSCKYDSCCVIDKITRNQCQLCRFKKCIAVGMAMDLVLDDSKRVAKRKLIEQNRERRRKEEMIRSLQQRPEPTPEEWDLIHIATEAHRSTNAQGSHWKQRRKFLPDDIGQSPIVSMPDGDKVDLEAFSEFTKIITPAITRVVDFAKKLPMFSELPCEDQIILLKGCCMEIMSLRAAVRYDPESDTLTLSGEMAVKREQLKNGGLGVVSDAIFELGKSLSAFNLDDTEVALLQAVLLMSTDRSGLLCVDKIEKSQEAYLLAFEHYVNHRKHNIPHFWPKLLMKEREVQSSILYKGAAAEGRPGGSLGVHPEGQQLLGMHVVQGPQVRQLEQQLGEAGSLQGPVLQHQSPKSPQQRLLELLHRSGILHARAVCGEDDSSEADSPSSSEEEPEVCEDLAGNAASP
Z score of condensed fraction: -0.4575

B7: THAP4 (protein, UniProt Q8WY91 1-577, looked up)
Peroxynitrite isomerase THAP4: MVICCAAVNCSNRQGKGEKRAVSFHRFPLKDSKRLIQWLKAVQRDNWTPTKYSFLCSEHFTKDSFSKRLEDQHRLLKPTAVPSIFHLTEKKRGAGGHGRTRRKDASKATGGVRGHSSAATSRGAAGWSPSSSGNPMAKPESRRLKQAALQGEATPRAAQEAASQEQAQQALERTPGDGLATMVAGSQGKAEASATDAGDESATSSIEGGVTDKSGISMDDFTPPGSGACKFIGSLHSYSFSSKHTRERPSVPREPIDRKRLKKDVEPSCSGSSLGPDKGLAQSPPSSSLTATPQKPSQSPSAPPADVTPKPATEAVQSEHSDASPMSINEVILSASGACKLIDSLHSYCFSSRQNKSQVCCLREQVEKKNGELKSLRQRVSRSDSQVRKLQEKLDELRRVSVPYPSSLLSPSREPPKMNPVVEPLSWMLGTWLSDPPGAGTYPTLQPFQYLEEVHISHVGQPMLNFSFNSFHPDTRKPMHRECGFIRLKPDTNKVAFVSAQNTGVVEVEEGEVNGQELCIASHSIARISFAKEPHVEQITRKFRLNSEGKLEQTVSMATTTQPMTQHLHVTYKKVTP
Z score of condensed fraction: -0.8956

B8: TIEG (protein, UniProt Q13118 1-480, looked up)
Krueppel-like factor 10: MLNFGASLQQTAEERMEMISERPKESMYSWNKTAEKSDFEAVEALMSMSCSWKSDFKKYVENRPVTPVSDLSEEENLLPGTPDFHTIPAFCLTPPYSPSDFEPSQVSNLMAPAPSTVHFKSLSDTAKPHIAAPFKEEEKSPVSAPKLPKAQATSVIRHTADAQLCNHQTCPMKAASILNYQNNSFRRRTHLNVEAARKNIPCAAVSPNRSKCERNTVADVDEKASAALYDFSVPSSETVICRSQPAPVSPQQKSVLVSPPAVSAGGVPPMPVICQMVPLPANNPVVTTVVPSTPPSQPPAVCPPVVFMGTQVPKGAVMFVVPQPVVQSSKPPVVSPNGTRLSPIAPAPGFSPSAAKVTPQIDSSRIRSHICSHPGCGKTYFKSSHLKAHTRTHTGEKPFSCSWKGCERRFARSDELSRHRRTHTGEKKFACPMCDRRFMRSDHLTKHARRHLSAKKLPNWQMEVSKLNDIALPPTPAPTQ
Z score of condensed fraction: 1.047
